According to patent US20120164670A1, “METHODS AND KITS FOR MEASURING ENZYME ACTIVITY” (President and Fellows of Harvard College, priority 2009, published 2012):

Substrate: CC(=O)NCCCC[C@H](NC(=O)[C@H](CCCNC(=N)N)NC(=O)[C@H](C)NC(=O)[C@@H](N)[C@@H](C)O)C(=O)N[C@@H](CO)C(=O)N[C@H](C(=O)NCC(=O)O)[C@@H](C)O
Assay: Sirtuin assay kit (PNC1-OPT) with hSIRT1 enzyme
Format: biochemical, human
Conditions: other: kit protocol, Experiment 2 mastermix; pH 8.0; 37.0 °C
Experimental: Kit contents are generally stored at −20° C. Modifications or variations in volumes or amounts of components described below are compatible with kits and assays described herein. • 1) Assay Buffer: 2 tubes with 1 mL each of 10× Assay Buffer. Dilute to 1× with ddH20 prior to use. • 2) Non-tagged Peptide Substrate: 1 tube with 140 uL of 5 mM H3K9ac substrate (TARK(ac)STG)) (SEQ ID NO:23). This is a sample substrate only; any substrate may be used in this assay. • 3) β-NAD: a) 1 tube with 450 uL of 10 mM B-NAD, and b) 1 tube with 50 uL of 100 mM B-NAD. In some instances, it is preferable to keep β-NAD in concentrated aliquot form, and dilute it prior to use. • 4) hSIRT1 Enzyme: 1 tube with 400 uL of 1.1 ug/uL full-length human SIRT1 enzyme. • 5) yPNC1 Enzyme: 1 tube with 200 uL of 2 ug/uL yeast PNC1 enzyme • 6) Developing Reagent: 2 vials with 10 mL each 1× Developer (10 mM OPT/10 mM DTT in 100% EtOH). Minimize exposure to light as outlined in the procedure. […]
In some instances, when adding the OPT Developer it is advisable to work in a dark or dimly lit setting. […] Once covered, ambient lighting may be restored. • d) Read the samples. Samples may be transferred to a 96-well plate for reading (do this under dim light). Read the fluorescence on a fluorometer with filters set to excitation ˜420 nm, and emission ˜460 nm. […]

B1: full-length human SIRT1 enzyme (Homo sapiens) (protein)
chain: MADEAALALQPGGSPSAAGADREAASSPAGEPLRKRPRRDGPGLERSPGEPGGAAPEREVPAAARGCPGAAAAALWREAEAEAAAAGGEQEAQATAAAGEGDNGPGLQGPSREPPLADNLYDEDDDDEGEEEEEAAAAAIGYRDNLLFGDEIITNGFHSCESDEEDRASHASSSDWTPRPRIGPYTFVQQHLMIGTDPRTILKDLLPETIPPPELDDMTLWQIVINILSEPPKRKKRKDINTIEDAVKLLQECKKIIVLTGAGVSVSCGIPDFRSRDGIYARLAVDFPDLPDPQAMFDIEYFRKDPRPFFKFAKEIYPGQFQPSLCHKFIALSDKEGKLLRNYTQNIDTLEQVAGIQRIIQCHGSFATASCLICKYKVDCEAVRGDIFNQVVPRCPRCPADEPLAIMKPEIVFFGENLPEQFHRAMKYDKDEVDLLIVIGSSLKVRPVALIPSSIPHEVPQILINREPLPHLHFDVELLGDCDVIINELCHRLGGEYAKLCCNPVKLSEITEKPPRTQKELAYLSELPPTPLHVSEDSSSPERTSPPDSSVIVTLLDQAAKSNDDLDVSESKGCMEEKPQEVQTSRNVESIAEQMENPDLKNVGSSTGEKNERTSVAGTVRKCWPNRVAKEQISRRLDGNQYLFLPPNRYIFHGAEVYSDSEDDVLSSSSCGSNSDSGTCQSPSLEEPMEDESEIEEFYNGLEDEPDVPERAGGAGFGTDGDDQEAINEAISVKQEVTDMNYPSNKS
notes: 1.1 ug/uL full-length human SIRT1 enzyme
Question: How did the Km turn out when B1 was run?
Answer: The Km was 50 µM.
